Measurements: the Human Domainome abundance scans (Beltran et al. 2025)
± gives the uncertainty stated by the source.

B1: Transcription factor SOX-4, residues 60 to 127; numbered along this chain, Q06945 (parent)
chain: KRPMNAFMVWSQIERRKIMEQSPDMHNAEISKRLGKRWKLLKDSDKIPFIREAERLRLKHMADYPDYK

Variants of: B1
Assay: abundance fitness (aPCA) (normalised: wild type 0, dead -1); higher = more abundant; growth selection in yeast, the domain comes from the species named
Details: Homo sapiens
Variant D24S has an abundance fitness of -0.15 ± 0.04. In the case of D24W, the abundance fitness is reported as -0.188 ± 0.063. D24F gave an abundance fitness of -0.134 ± 0.043. D24N showed an abundance fitness of -0.123 ± 0.063. Variant D24C has an abundance fitness of -0.335 ± 0.061. D24G gave an abundance fitness of -0.123 ± 0.042. Variant D24M has an abundance fitness of -0.214 ± 0.057. Variant D24K has an abundance fitness of -0.141 ± 0.064. With D24E the abundance fitness was -0.052 ± 0.051. In the case of D24T, the abundance fitness is reported as -0.206 ± 0.068. D24I showed an abundance fitness of -0.632 ± 0.1. D24R gave an abundance fitness of -0.307 ± 0.044. With D24P the abundance fitness was -0.564 ± 0.11. D24A gave an abundance fitness of -0.239 ± 0.06. In the case of D24L, the abundance fitness is reported as -0.251 ± 0.039. Work on D24Q yielded an abundance fitness of -0.114 ± 0.063. Work on P23I yielded an abundance fitness of -0.568 ± 0.074. P23W gave an abundance fitness of -0.766 ± 0.088. Variant P23D has an abundance fitness of -0.564 ± 0.059. In the case of P23V, the abundance fitness is reported as -0.634 ± 0.06. With P23N the abundance fitness was -0.554 ± 0.057. With P23F the abundance fitness was -0.97 ± 0.12. For P23E, the abundance fitness was -0.554 ± 0.065. P23S gave an abundance fitness of -0.47 ± 0.047. P23M showed an abundance fitness of -0.817 ± 0.077. P23Q showed an abundance fitness of -0.482 ± 0.09. Variant P23A has an abundance fitness of -0.619 ± 0.074. Work on P23R yielded an abundance fitness of -0.669 ± 0.048. P23H showed an abundance fitness of -0.548 ± 0.083. In the case of P23Y, the abundance fitness is reported as -0.862 ± 0.091. P23L showed an abundance fitness of -0.52 ± 0.055. Variant P23T has an abundance fitness of -0.593 ± 0.07. L34P showed an abundance fitness of -0.955 ± 0.2. In the case of L34F, the abundance fitness is reported as -0.724 ± 0.18. In the case of L34V, the abundance fitness is reported as -0.83 ± 0.18. For L34C, the abundance fitness was -0.825 ± 0.18. For L34H, the abundance fitness was -0.881 ± 0.12. For L34T, the abundance fitness was -0.957 ± 0.15. Work on L34R yielded an abundance fitness of -0.981 ± 0.14. With L34Q the abundance fitness was -0.577 ± 0.22. Variant L34S has an abundance fitness of -0.621 ± 0.15. L34I showed an abundance fitness of -0.083 ± 0.17. For L34M, the abundance fitness was -0.798 ± 0.18. L34G showed an abundance fitness of -0.973 ± 0.14. For L34W, the abundance fitness was -0.713 ± 0.11. For L34E, the abundance fitness was -0.639 ± 0.27. With M19Q the abundance fitness was -0.112 ± 0.11. With M19P the abundance fitness was -0.785 ± 0.26. With M19H the abundance fitness was -0.368 ± 0.072. Work on M19K yielded an abundance fitness of 0.007 ± 0.048. With M19Y the abundance fitness was -0.459 ± 0.064. M19W gave an abundance fitness of -0.326 ± 0.068. For M19R, the abundance fitness was -0.236 ± 0.05. In the case of M19T, the abundance fitness is reported as -0.338 ± 0.098. In the case of M19G, the abundance fitness is reported as -0.452 ± 0.053. M19D gave an abundance fitness of -0.463 ± 0.088. M19S gave an abundance fitness of -0.212 ± 0.039. With M19N the abundance fitness was -0.396 ± 0.057. With M19C the abundance fitness was -0.175 ± 0.045. For M19E, the abundance fitness was -0.019 ± 0.067. M19L showed an abundance fitness of 0.116 ± 0.041. Work on M19V yielded an abundance fitness of -0.091 ± 0.046. In the case of M19F, the abundance fitness is reported as -0.257 ± 0.054. Work on M19I yielded an abundance fitness of 0.014 ± 0.045. Variant K32G has an abundance fitness of -0.361 ± 0.038. Variant K32Q has an abundance fitness of 0.066 ± 0.079. Work on K32V yielded an abundance fitness of -0.116 ± 0.035. K32F gave an abundance fitness of -0.281 ± 0.045. K32C showed an abundance fitness of -0.167 ± 0.046. Variant K32R has an abundance fitness of -0.054 ± 0.036. K32Y gave an abundance fitness of -0.062 ± 0.053. Variant K32H has an abundance fitness of -0.154 ± 0.039. Variant K32P has an abundance fitness of -0.498 ± 0.16. With K32D the abundance fitness was -0.012 ± 0.044. Work on K32M yielded an abundance fitness of 0.082 ± 0.057. Variant K32W has an abundance fitness of -0.243 ± 0.049. For K32S, the abundance fitness was -0.067 ± 0.04. K32A gave an abundance fitness of -0.108 ± 0.047. For K32T, the abundance fitness was -0.12 ± 0.053. K32I showed an abundance fitness of -0.225 ± 0.063. In the case of K32E, the abundance fitness is reported as 0.183 ± 0.044. For K32L, the abundance fitness was -0.08 ± 0.031. H26K showed an abundance fitness of 0.138 ± 0.15. For H26N, the abundance fitness was 0.289 ± 0.25. H26T showed an abundance fitness of 0.154 ± 0.058. Variant H26Q has an abundance fitness of 0.111 ± 0.1. H26E gave an abundance fitness of 0.024 ± 0.095. Work on H26I yielded an abundance fitness of -0.088 ± 0.11. In the case of H26Y, the abundance fitness is reported as -0.652 ± 0.39. Work on H26M yielded an abundance fitness of -0.182 ± 0.093. H26L showed an abundance fitness of -0.1 ± 0.051. H26G showed an abundance fitness of -0.082 ± 0.071. Work on H26C yielded an abundance fitness of 0.127 ± 0.084. With H26P the abundance fitness was 0.134 ± 0.092. H26D gave an abundance fitness of 0.191 ± 0.094. Variant H26S has an abundance fitness of 0.291 ± 0.075. For H26V, the abundance fitness was -0.039 ± 0.11. H26F gave an abundance fitness of -0.713 ± 0.43. Work on H26A yielded an abundance fitness of 0.113 ± 0.07. With H26W the abundance fitness was -0.281 ± 0.079. For S31H, the abundance fitness was -0.19 ± 0.07. Variant S31M has an abundance fitness of 0.072 ± 0.043. With S31K the abundance fitness was -0.039 ± 0.06. S31P gave an abundance fitness of -0.733 ± 0.11. In the case of S31Q, the abundance fitness is reported as -0.038 ± 0.078. S31L showed an abundance fitness of -0.045 ± 0.041. S31D showed an abundance fitness of 0.154 ± 0.04. Work on S31G yielded an abundance fitness of -0.189 ± 0.03. Variant S31R has an abundance fitness of -0.137 ± 0.032. For S31T, the abundance fitness was 0.047 ± 0.052. In the case of S31V, the abundance fitness is reported as -0.021 ± 0.034. S31N showed an abundance fitness of 0.05 ± 0.044. S31C gave an abundance fitness of -0.027 ± 0.049. Work on S31F yielded an abundance fitness of -0.212 ± 0.043. Variant S31I has an abundance fitness of -0.054 ± 0.061. Work on E20P yielded an abundance fitness of -0.524 ± 0.12. Variant E20Y has an abundance fitness of -0.88 ± 0.33. E20I gave an abundance fitness of -0.227 ± 0.14. With E20R the abundance fitness was -0.364 ± 0.083. E20C gave an abundance fitness of -0.478 ± 0.19. E20T gave an abundance fitness of -0.296 ± 0.073. For E20W, the abundance fitness was -0.626 ± 0.1. Work on E20Q yielded an abundance fitness of -0.142 ± 0.33. Work on E20M yielded an abundance fitness of -0.239 ± 0.087. E20F gave an abundance fitness of -0.601 ± 0.19. Work on E20S yielded an abundance fitness of -0.497 ± 0.12. E20K showed an abundance fitness of -0.439 ± 0.16. E20N gave an abundance fitness of -0.478 ± 0.2. Variant E20H has an abundance fitness of -0.143 ± 0.24. With E20L the abundance fitness was -0.284 ± 0.076. For E20G, the abundance fitness was -0.343 ± 0.11. For E20A, the abundance fitness was -0.265 ± 0.098. With E20D the abundance fitness was -0.255 ± 0.16. Work on Q21N yielded an abundance fitness of -0.382 ± 0.12. For Q21A, the abundance fitness was -0.169 ± 0.065. Q21L gave an abundance fitness of -0.349 ± 0.062. Q21V gave an abundance fitness of -0.2 ± 0.061. Variant Q21Y has an abundance fitness of -0.63 ± 0.26. Q21S showed an abundance fitness of -0.163 ± 0.064. Q21I gave an abundance fitness of -0.128 ± 0.088. With Q21T the abundance fitness was -0.085 ± 0.075. Q21F gave an abundance fitness of -0.426 ± 0.14. Work on Q21E yielded an abundance fitness of -0.062 ± 0.12. Variant Q21C has an abundance fitness of -0.581 ± 0.17. Q21M showed an abundance fitness of -0.244 ± 0.1. Variant Q21K has an abundance fitness of -0.204 ± 0.088. Variant Q21R has an abundance fitness of -0.267 ± 0.066. In the case of Q21H, the abundance fitness is reported as -0.282 ± 0.11. In the case of Q21D, the abundance fitness is reported as -0.346 ± 0.1. Q21P gave an abundance fitness of -0.874 ± 0.15. Work on Q21W yielded an abundance fitness of -0.884 ± 0.17. R33C showed an abundance fitness of 0.083 ± 0.082. With R33Q the abundance fitness was 0.332 ± 0.077. For R33P, the abundance fitness was -0.922 ± 0.14. R33V showed an abundance fitness of 0.339 ± 0.074. Work on R33Y yielded an abundance fitness of -0.218 ± 0.16. For R33N, the abundance fitness was 0.126 ± 0.1. With R33D the abundance fitness was 0.483 ± 0.36. Work on R33I yielded an abundance fitness of -0.051 ± 0.2. In the case of R33T, the abundance fitness is reported as 0.085 ± 0.097. R33G gave an abundance fitness of -0.283 ± 0.064. Variant R33L has an abundance fitness of 0.192 ± 0.059. In the case of R33A, the abundance fitness is reported as 0.121 ± 0.078. Work on R33W yielded an abundance fitness of -0.089 ± 0.066. Variant R33S has an abundance fitness of -0.1 ± 0.07. R33K gave an abundance fitness of 0.048 ± 0.13. R33E gave an abundance fitness of 0.316 ± 0.067.
